From the DeepSol protein solubility set

Test: soluble on expression in E. coli; label from the status in PepcDB or PDB records

Question: With “MATVTTHASASIFRPCTSKPRFLTGSSGRLNRDLSFTSIGSSAKTSSFKVEAKKGEWLPGLASPDYLTGSLAGDNGFDPLGLAEDPENLKWFVQAELVNGRWAMLGVAGMLLPEVFTKIGIINVPEWYDAGKEQYFASSSTLFVIEFILFHYVEIRRWQDIKNPGSVNQDPIFKQYSLPKGEVGYPGGIFNPLNFAPTQEAKEKELANGRLAMLAFLGFVVQHNVTGKGPFENLLQHLSDPWHNTIVQTFN” as the sequence, how does the “soluble on expression in E. coli” value read?
Answer: soluble

Question: For “MAVARWLRDHSGPDDVVATNAHCRFAVSDSCDNRHFWISGYTERRVLVEGWGYTARTLASLTDVDREPMGAVPFWDAELLAANDAVFTAPTARAVDLLARRYGVRWLMVDRRRPLTAPDLGQFARLRYARGSFAVYSTLS”, which “soluble on expression in E. coli” value is on record?
Answer: not soluble

Question: With “MAVKFFGQFLVEKGVVSRETLLQAIELQESVNLSFGATSLAMGILTEADIERIHNAQRIEDLRFGDMAVKLGLLTSEQMMQVLTRQKNTHLYIGEALVKVGSFQADELPKYLEEFKADQAQYATDTVVIPTGVSEPKIWEMVADLSYKMLTRVALLVFRPEPCFVADRVPAMDVYATMDFTGDISGRYFMGVTAATQKKIAKAILKEPNVDNEPKEILDDTVMEFVNVALGNIAAKAAQSGKSMEIAPPEIIEAPDGIQVPDGHKALCFPVCLSDGDRIELAVFIQQLEHHHHHH” as the sequence, how does the “soluble on expression in E. coli” value read?
Answer: soluble

Question: With “MAVNLLKKNSLALVASLLLAGHVQATELLNSSYDVSRELFAALNPPFEQQWAKDNGGDKLTIKQSHAGSSKQALAILQGLKADVVTYNQVTDVQILHDKGKLIPADWQSRLPNNSSPFYSTMGFLVRKGNPKNIHDWNDLVRSDVKLIFPNPKTSGNARYTYLAAWGAADKADGGDKGKTEQFMTQFLKNVEVFDTGGRGATTTFAERGLGDVLISFESEVNNIRKQYEAQGFEVVIPKTNILAEFPVAWVDKNVQANGTEKAAKAYLNWLYSPQAQTIITDYYYRVNNPEVMDKLKDKFPQTELFRVEDKFGSWPEVMKTHFTSGGELDKLLAAGRN” as the sequence, how does the “soluble on expression in E. coli” value read?
Answer: soluble

Question: For “MAVPPTYVDLGKSARDIFTKGYGFGLIKLDLKTRSENGLEFKSSGSANTETSKVAGTLETKYKWAEHGLTFTEKWNTDNTLGTEITLEDQLTKGLKLTFDSSFSPNTGKKSGKIKSSYQREHINLGCDVDYDINGTAVHGALVLGLDGWLAGYQMTFEAGRNRITQSNFAVGYKTDEFQLHTNVNDGTEFGGSIYQKVNDNLETAVNLAWTAGNSNTRFGIAAKYQIDSDAAFSAKVNNSSLVGLGYTQTLKPGIKLTLSALLDGKNINAGGHKMGLGLEFEA”, which “soluble on expression in E. coli” value is on record?
Answer: soluble

Question: Which “soluble on expression in E. coli” value does the source give for “MAVPVQFRKPPMGGIGKKVAYYPGCSLEGAARAYDVSTRIVAKELGLELDYLEDYNCCGAMETKNVSFWGTMLLNARNMSLARRQGHNVIVAPCNGCSFSLQRVEYFLETDKNTLDRINQLLQEAGEKPLDNIPHTYHILEWFYHEAGPEKVKEKTKKPLRGLKVASYYGCLYTRPHFYARTYSHLAPEDEEQARPRKRETADDDEHPYYMEALLEAAGATSVEIEPMHTQCCGGPHSLSDEEVSEKFVMMILQTAKRNGADIIATECPLCHASLEMYRHRLMLKGVPDVDVPAAYFTQLLGLAFGYSVNDVKLKDNLSDPIPVLKRLGLA” here?
Answer: not soluble

Question: For “MAVTISGVRKHSPAYRHGIQAGERLLTLNGNEIMDVLDYRFYQLNTALVLELENNRGERRTVSLKKPEYEEIGLEFETYLMDRQHSCKNKCVFCFIDQLPKGLRKSLYFKDDDSRLSFLFGNYVTLTNLTEHEISRIIKMHISPMNISVHTTNPELRVKMMKNPRAGEALSIIRRFAQAGIKINCQIVLCPGYNDGEELKRTLSDLETMCPQVQAVAVVPVGITRYRQNLPEMRSFTRETAGEAIDLIESFGEKCLQKYGTRVAYPGDEFYLKAERPLPPAGFYEDFSMLENGVGLLPLLMDEFYSALEEAGETGGRKREITIATGMAPREYIRGFLDDAIKKFPHISGRVTPIVNRFFGETITVSGLVTGTDLIEQLSSVDLGDELLIPACMLRREGDLFLDDVSLQDVEAALKVPVRPVPNDGYAFLDAILGSESLEHHHHHH”, which “soluble on expression in E. coli” value is on record?
Answer: not soluble

Question: With “MAVTQSPRNKVAVTGGKVTLSCNQTNNHNNMYWYRQDTGHGLRLIHYSYGAGSTEKGDIPDGYKASRPSQENFSLILELATPSQTSVYFCASGDLGQTNERLFFGHGTKLSVLGSADDAKKDAAKKDGQVRQSPQSLTVWEGETAILNCSYENSAFDYFPWYQQFPGEGPALLISILSVSDKKEDGRFTIFFNKREKKLSLHIADSQPGDSATYFCAAIDTNAYKVIFGKGTHLHVLP” as the sequence, how does the “soluble on expression in E. coli” value read?
Answer: soluble

Question: Which “soluble on expression in E. coli” value does the source give for “MAYFIDRRLNGKNKSTVNRQRFLRRYKSQIKQSISEAINKRSVTDIESGESVSIPNADINEPMFHQGRGGHRHRVHPGNDHFVQNDKIERPQGGGGSGSGQGDASKDGEGDDEFVFQISKDEYLDLLFEDLALPNLKKTQHRQMTEYKMHRAGYTANGVPANISVVRSLQNSLARRMAMTAGKRRTLHELEESLEQLAYTEPAQLLEEERLREDIAELRKKIARVPFIDTFDLRYKNYERRAEPSSQAVMFCLMDVSGSMDQATKDMAKRFYILLYLFLSRNYKNVDVVYIRHHTQAKEVDEQEFFYSQETGGTIVSSALKLMEEVVRERYDPSQWNIYAAQASDGDNWADDSPLCHQILASKLLPMVRYYSYIEITRRSHQTLWREYETLRDTFDNFAMQHIRDQDDIYPVFRELFRKQTVGHLEHHHHHH” here?
Answer: not soluble

Question: For “MAYRDQPLGELALSIPRASALFRKYDMDYCCGGKQTLARAAARKELDVEVIEAELAKLAEQPIEKDWRSAPLAEIIDHIIVRYHDRHREQLPELILQATKVERVHADKPSVPKGLTKYLTMLHEELSSHMMKEEQILFPMIKQGMGSQAMGPISVMESEHDEAGELLEVIKHTTNNVTPPPEACTTWKAMYNGINELIDDLMDHISLENNVLFPRALAGE”, which “soluble on expression in E. coli” value is on record?
Answer: not soluble

Question: Which “soluble on expression in E. coli” value does the source give for “MAYRDRGMQKWQGMILSEHTEQLEQAKRKLSWLPQQSEECLVEILSYAVTKQHAITIQRLTEDENGYPLPFVVGRIVGVEDDRIYMRDMAGEITVLTFDDINHISEGTIEKWYR” here?
Answer: not soluble

Question: For “MAYVTLYPNLILEALGKVRYPGTGKDLVSAGMVEDDIRIDGNKVSFSLIFDKANDPFIKSVVKAAESAILTYISEDVNIKGNISVKSKQAIPAPPAKLLPGVKNIIAVFSGKGGVGKSTVTANLAVSLAKSGYRVGLLDADIFGPSMPKMFHCEESRPVLEEVDGRELIVPEEVMGVKILSIGFFVDPDNAVLWRGSMAGNALTQLIRDANWGELDYFLIDMPPGTSDIHLTLVQTLAITGAVVVTTPQDVALADARKGISMFVGEKINVPVLGLVENMSWFTPAELPQNKYYIFGRDGGKNLAEELNIPLLGQIPLVQGICQSGDEGIPVAVRDDSMMGIAFRELAARVVEQVDYRNEHLDPTKVVEVAHR”, which “soluble on expression in E. coli” value is on record?
Answer: not soluble

Question: For “MCAALKRCAYRHKGKIMENTNIVTTEQQAPNTISASNAIFNVQALGQLTAFANLMADSQVTVPAHLAGKPADCMAIVMQAMQWGMNPYAVAQKTHLVNGVLGYEAQLVNAVIASSSAIHGRFHYRYGGDWERCTRTQEITRDKNGKNGKYTVTERVRGWTDEDEIGLFVQVGAILRGESEITWGEPLYLSGVVTRNSPLWVSNPKQQIAYLGVKYWARLYCPEVILGVYSPDEVEQREEREINPAPVQRMSVQEITSEVSTRTSAQESAANVDAVADDLRERIDTASSVDQAKAIRADIESQKALLGTALFTELKNKAVKRYYQVNAQNKVEAVINSIPNPGEPEAAEMFAKAESTLGAAKRHLGDELHDKYRVTLDDMKPEYIG”, which “soluble on expression in E. coli” value is on record?
Answer: not soluble

Question: Which “soluble on expression in E. coli” value does the source give for “MCARIQQLPVFFIFILYGSCATTKRNIYVLAINKLMEQQIRKYESFNDLPADCKKLFDSGEKDSFDLSRDWFLLLETTVIRQTKEICIFTLEIEGVTQGIWPTLLQKKGKLSLRQISSFTCFYSSLYQPLISSSLTVDKLADCLRWILSDTRTDVLRFDIMDPSQSSFNLHEQALKKIGFKTDRFFCWGNWYLPVNNQPFSVYLQNLSSRVRNTLERRKKKFLAGGHGKLEILTTHDKLPIAIQAWEKIYNASWKIPEPYPEFMPSLISLCAAKGWLRLGIAYYDEEPIAAQLWIVNQGRAAIYKLAYDEKFAHLSPGTILTAHLMQHAIDVDKVHEVDYLTGDDAYKKDWMSHRRERLGLVAYNLRSFWGLIGISKHIAGKIRKKILKSLK” here?
Answer: not soluble

Question: For “MCGDCVEKEYPNRGNTCLENGSFLLNFTGCAVCSKRDFMLITNKSLKEEDGEEIVTYDPDLCKNCHHVIARHEYTFSIMDEFQEYTMLCLLCAKPKILSVFSLMTPDKLEHHHHHH”, which “soluble on expression in E. coli” value is on record?
Answer: soluble

Question: For “MCGKTILLEVTPCDNFVFNKSTNLTDTAYVTLKNISEKPVCFKVKTSVPNMYVSRPNPDLLKPGEARQLSVKFRSSDKVSLNAKSYKLKIESCEFESEDIDDLKSFWSSIPNEKILVHKSPIILGTGSSPDFRNDQIASESSRQSSPIQNVSDDGKSSHHSTAKQLQENNENSKSLKYTKQLVEVPLGENQQADQTGTTCDKKDEFQKKNQLEVEIKFVDKIHEIKSQLEDSFELKLKEMEMRLEEKFEKRISRLTQFMETISLSNSPGNSRRVFELDDNFSIVAKKELEQMRQDFEKVLDGQNKIAEEKMNELRKRREELQV”, which “soluble on expression in E. coli” value is on record?
Answer: not soluble

Question: With “MCGRFVLFTTDESLLGHPALRIFHSIHAPKGMPPARYNIAPTTIIPILRVGTTPTEAVIEPARWGLIPAWKREVTLPPLFNARAETVTTKPSFRQAFSTQRCAIPMDGYYEWHNKKPYWITTGAPTWVAGLWDSGAGMLSATMITTDSVAPLDWLHHRMPRFLNNDELAVWLRGSADEASGLLTPGDASAFHTSLADPSVGNIRNDYPELIDAPTDLFSL” as the sequence, how does the “soluble on expression in E. coli” value read?
Answer: not soluble

Question: For “MCHKLPKTHNCTFFRKLSNWHSGILISLEQKVTGSIPARETVQLAQWYFDFFGAEGHGFNPREGNCPTGAGVYLTSLEQKVTGSIPAWENNFCLIC”, which “soluble on expression in E. coli” value is on record?
Answer: not soluble

Question: For “MCLILFALDAHPRYRLVLAANRDEFYARPTAPAAFWDDAPQVLAGRDLTAGGTWCGVTRDGRIAAVTNYRDPGAHRVGARSRGELVAGFLGGDEAPSRWLEHLQRNGHDYNGFNLIFGDGNGLHYHSNRGAAASPLSPGIHGLSNHLLDTPWPKVARGRDALARLLATADEPAVDDLFAILANRTPAPDHLLPDTGVSLDWERLLSPLFITSPTYGTRSSTVILVDRSGQCTFVERSYNGAADHPRTVEYRFEVITLEHHHHHH”, which “soluble on expression in E. coli” value is on record?
Answer: not soluble

Question: For “MCPPYGANKFSRKKVMYVIVDIQGQQMKVEQGRRLFVHHIKDVESGASVEFDKVLLVDNNGAITVGSPLVEGAKVVCEVLTPLVKGDKVLIFHKKRRKGYRKLNGHRQQFTEILVKEVVA”, which “soluble on expression in E. coli” value is on record?
Answer: not soluble

Question: For “MCSLLKLLKISGKSVSDDDPIERYIKCEQCKCKRHWVEQLQRDEMDQMLHRLQFENKQLRKELEWKRGAASTMEIDRSSKRHQERHQSESRGGTLPLRNGRSVVSLKSTQSQNDVMDEAKALRLHKQRLEHRSRILEQQNEQLEMQLQRLKKVIDAQKQQAPLSTNSLLRGSHHQPWSPERARSGSASTLDRGLIVSSRHQEQAEAAGGGAEDSSDEAGGAGGGPRGSSVGQMQNLMTACDDLGKAMESLVVSVVYDSDDEEND”, which “soluble on expression in E. coli” value is on record?
Answer: not soluble
